Consider 3 substances from US20210284690A1.

Bounds are passed on as bounds.

Experiment [1] addresses extracellular part of human CD40L (aa 108-261 recombinantly produced in E. coli) (human) (UniProt P29965). Description: BLI (OctetRED96), Fab captured on anti-human Fab-CH1 (FAB2G) sensors, soluble CD40L 2.5-80 nM, 1:1 global fit; purchased.
The next experiment addresses IL-1β. Kind of experiment: cell-based or functional assay.

extracellular part of human CD40L (aa 108-261 recombinantly produced in E. coli) (human), sequence (P29965 108-261 limits assumed): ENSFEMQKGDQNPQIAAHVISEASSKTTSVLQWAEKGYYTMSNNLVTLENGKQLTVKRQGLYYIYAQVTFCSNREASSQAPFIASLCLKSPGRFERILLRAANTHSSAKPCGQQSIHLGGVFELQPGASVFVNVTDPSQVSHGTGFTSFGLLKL

Usually Kd stands for the equilibrium constant for the complex coming apart. As for Dapirolizumab Fab, the Kd in experiment [1] was below 0.3 nM.

Turning to “Met-huIL-1Ra (Anakinra) (from UniProt P18510 26-177) (ligand)”, the NHDF IC50 (pM); inhibition of IL-1β induced IL-6 release from NHDF cells with IL-1β came out at 70 pM.

In the experiment with IL-1β, “PEG(L30kDa)-Met-huIL-1Ra (from UniProt P18510 26-177) (ligand)” yielded an NHDF IC50 (pM); inhibition of IL-1β induced IL-6 release from NHDF cells of 900 pM.
